{
  "source": "patent US20120301433A1",
  "about": "“BACTERIOPHAGES EXPRESSING AMYLOID PEPTIDES AND USES THEREOF” (priority 2009, published 2012)",
  "target": "amyloid-b1-42 peptide (UniProt P05067)",
  "sequence (P05067 672-713 limits assumed)": "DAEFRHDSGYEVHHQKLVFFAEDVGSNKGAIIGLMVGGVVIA",
  "experiment": "cell-based or functional assay",
  "data": [
    {"substance": "T7-RRR-CsgB133-142-PPP (from UniProt P19727 1-348)", "values": [
      {"measurement": "Aβ:peptide molar ratio at the doubling of the lag time", "value": 70000},
      {"measurement": "phage concentration that doubles the lag time of Aβ fiber formation", "value": "5e+07", "unit": "PFU/mL"}
    ]}
  ]
}
